Measured values published in the Immune Epitope Database (IEDB).

Legend:
[1] = biological target: HLA-A*23:01; assay: IEDB peptide-MHC binding, purified MHC/competitive/radioactivity; filed as Kd, often an IC50 or EC50 that approximates it; ≥ and ≤ were set here for values at or beyond the usual limits of such assays
[2] = biological target: HLA-A*29:02; assay: as above
[3] = biological target: HLA-A*24:02; assay: as above
[4] = biological target: HLA-A*26:01; assay: as above
[5] = biological target: HLA-A*01:01; assay: as above
[6] = biological target: HLA-A*30:02; assay: as above
[7] = biological target: HLA-A*30:01; assay: as above
[8] = biological target: HLA-A*32:01; assay: as above
[9] = biological target: HLA-B*15:01; assay: as above
[10] = biological target: HLA-A*11:01; assay: as above; conditions: source organism: Triticum aestivum
[11] = biological target: HLA-A*31:01; assay: as above; conditions: source organism: Triticum aestivum
[12] = biological target: HLA-A*33:01; assay: as above; conditions: source organism: Triticum aestivum
[13] = biological target: HLA-A*03:01; assay: as above; conditions: source organism: Triticum aestivum
[14] = biological target: HLA-A*68:01; assay: as above; conditions: source organism: Triticum aestivum
[15] = biological target: HLA-B*35:01; assay: as above
[16] = biological target: HLA-B*53:01; assay: as above
[17] = biological target: HLA-B*40:01; assay: IEDB peptide-MHC binding, purified MHC/direct/fluorescence; filed as Kd, often an IC50 or EC50 that approximates it; ≥ and ≤ were set here for values at or beyond the usual limits of such assays; conditions: source organism: Influenza A virus (A/tern/Australia/1/04(H2N5))
[18] = biological target: HLA-B*44:02; assay: as above; conditions: source organism: Influenza A virus (A/tern/Australia/1/04(H2N5))
[19] = biological target: HLA-B*18:01; assay: as above; conditions: source organism: Influenza A virus (A/tern/Australia/1/04(H2N5))
[20] = biological target: HLA-B*51:01; assay: IEDB peptide-MHC binding, purified MHC/competitive/radioactivity; filed as Kd, often an IC50 or EC50 that approximates it; ≥ and ≤ were set here for values at or beyond the usual limits of such assays
[21] = source organism: Mammarenavirus guanaritoense
[22] = source organism: SARS coronavirus Tor2
[23] = source organism: Mammarenavirus choriomeningitidis
[24] = source organism: Dengue virus 4 Philippines/H241/1956
[25] = source organism: Vaccinia virus WR
[26] = source organism: Dengue virus 3 Singapore/8120/1995
[27] = source organism: Dengue virus 2 Jamaica/1409/1983
[28] = source organism: Triticum aestivum
[29] = source organism: Dengue virus 1 Brazil/97-11/1997
[30] = source organism: Mammarenavirus brazilense
[31] = source organism: Dengue virus 3 Sri Lanka/1266/2000
[32] = source organism: Mammarenavirus whitewaterense
[33] = source organism: Dengue virus 1 Nauru/West Pac/1974

## FFGALKFKI
[1]; [21]
  Kd: 207 nM
[2]; [21]
  Kd: 20.3 nM
[3]; [21]
  Kd: 2150 nM

## VYDPLQPEL
[1]; [22]
  Kd: 12800 nM
[4]; [22]
  Kd: ≥ 77.9 µM
[2]; [22]
  Kd: 8.42 nM
[3]; [22]
  Kd: ≥ 44800 nM
[5]; [22]
  Kd: ≥ 78.1 µM
[6]; [22]
  Kd: 302 nM

## KTGESSRSY
[4]; [23]
  Kd: ≥ 77.9 µM
[2]; [23]
  Kd: 16700 nM
[5]; [23]
  Kd: 3.66 µM
[7]; [23]
  Kd: 1090 nM
[8]; [23]
  Kd: 14300 nM
[6]; [23]
  Kd: 63.3 nM

## ILGAQALPVY
[9]; [24]
  Kd: 4.87 nM
[5]; [24]
  Kd: ≥ 70.4 µM
[6]; [24]
  Kd: 80.8 nM

## MLHNFLPHM
[9]; [25]
  Kd: 41 nM

## HMIAGVLFTF
[4]; [26]
  Kd: 1.16 µM
[9]; [26]
  Kd: 2.03 nM
[3]; [26]
  Kd: 431 nM

## FTPEAKNSTF
[4]; [24]
  Kd: 0.653 µM
[3]; [24]
  Kd: 3020 nM

## RQMEGEGIF
[9]; [27]
  Kd: 5.85 nM
[8]; [27]
  Kd: 140 nM

## MLFYLEEPI
[9]; [25]
  Kd: 45.2 nM
[8]; [25]
  Kd: 2.51 nM

## VSFQQPQQQY
[10]
  Kd: 1770 nM
[1]; [28]
  Kd: ≥ 38800 nM
[4]; [28]
  Kd: ≥ 26.1 µM
[11]
  Kd: ≥ 70 µM
[12]
  Kd: ≥ 70 µM
[2]; [28]
  Kd: 55.5 nM
[3]; [28]
  Kd: ≥ 70300 nM
[13]
  Kd: ≥ 70.1 µM
[14]
  Kd: ≥ 70.2 µM
[6]; [28]
  Kd: 0.209 nM

## PYPDPSRIL
[1]; [22]
  Kd: 19800 nM
[4]; [22]
  Kd: ≥ 77.9 µM
[2]; [22]
  Kd: ≥ 35900 nM
[3]; [22]
  Kd: ≥ 83300 nM
[5]; [22]
  Kd: ≥ 78.1 µM
[6]; [22]
  Kd: ≥ 75000 nM

## YSDPLALREF
[15]; [29]
  Kd: 1890 nM
[16]; [29]
  Kd: 899 nM
[5]; [29]
  Kd: 0.0213 µM

## NKDGFLYVY
[1]; [22]
  Kd: ≥ 77800 nM
[4]; [22]
  Kd: 14.3 µM
[2]; [22]
  Kd: 1130 nM
[3]; [22]
  Kd: ≥ 77600 nM
[5]; [22]
  Kd: 13.9 µM
[6]; [22]
  Kd: 2830 nM

## PFVVSTGYHF
[1]; [22]
  Kd: 3.03 nM
[4]; [22]
  Kd: 0.974 µM
[2]; [22]
  Kd: 257 nM
[3]; [22]
  Kd: 67.9 nM
[5]; [22]
  Kd: 4.89 µM
[6]; [22]
  Kd: 11800 nM

## RSFTFKEGF
[9]; [25]
  Kd: 34.8 nM

## SIISLFYTF
[9]; [25]
  Kd: 1.37 nM
[8]; [25]
  Kd: 5.71 nM

## EPVPMSTYGW
[16]; source organism: Dengue virus 3 Martinique/1243/1999
  Kd: 158 nM

## VTYLALLAAF
[4]; [27]
  Kd: ≥ 69.7 µM
[9]; [27]
  Kd: 40.7 nM
[5]; [27]
  Kd: 14.8 µM

## KTFFWFNEV
[4]; [30]
  Kd: 12.5 µM
[2]; [30]
  Kd: 18600 nM
[5]; [30]
  Kd: 11.5 µM
[7]; [30]
  Kd: 93.2 nM
[8]; [30]
  Kd: 7.26 nM
[6]; [30]
  Kd: 59.2 nM

## MSPCRMFSF
[9]; [25]
  Kd: 17.3 nM

## NVINYFNRM
[9]; [25]
  Kd: 960 nM

## SETQGTEKL
[17]
  Kd: 10.5 nM
[18]
  Kd: ≥ 20 µM
[19]
  Kd: 2040 nM

## MAMTCIAVG
[15]; [24]
  Kd: 116 nM

## LPTALAFHL
[20]; [29]
  Kd: 1410 nM
[16]; [29]
  Kd: 2.16 nM

## LIVSGIFPY
[4]; [31]
  Kd: 1.16 µM
[15]; [31]
  Kd: 82.7 nM
[9]; [31]
  Kd: 2.91 nM
[6]; [31]
  Kd: ≥ 76900 nM

## EPEVANLDII
[16]; [29]
  Kd: 8450 nM

## VFIWFIFHF
[9]; source organism: Vaccinia virus
  Kd: 642 nM

## KFWYVNHTGF
[1]; [32]
  Kd: 80.9 nM
[2]; [32]
  Kd: 341 nM
[3]; [32]
  Kd: 604 nM

## IMMLKLLTEF
[9]; [29]
  Kd: 6.24 nM
[3]; [29]
  Kd: 309 nM

## KQSNTNKHM
[9]; [25]
  Kd: 27.8 nM

## LYAVATTII
[1]; [33]
  Kd: 211 nM
[20]; [33]
  Kd: 1390 nM
[3]; [33]
  Kd: 59.7 nM
